Molecular target: UbcA1, ubiquitin-conjugating enzyme E2 from Agrocybe aegerita (Agrocybe aegerita)
Assay: AUC; velocity sedimentation, Beckman XL-I, 4 °C, 40 μM protein, 50 mM Tris pH 7.5, 150 mM NaCl, 60,000 rpm, c(S) of Sedfit; monomer to dimer

Substance: UbcA1, ubiquitin-conjugating enzyme E2 from Agrocybe aegerita
- monomer : dimer ratio (monomer : dimer): 32.6
- stoichiometry N: 2
